Data: patent US20160264649A1

Columns and labels:
Experiment in all cases: cell-based or functional assay
[1] = target: HIV-1 Env of isolate MGRM-Chronic-B-004 (subtype B) (HIV-1)
[2] = target: HIV-1 Env of isolate 92 BR 020 (subtype B) (HIV-1)
[3] = target: HIV-1 Env of isolate MG RM-C-020 (subtype C) (HIV-1)
[4] = target: HIV-1 Env of isolate THR0.18 (subtype B) (HIV-1)
[5] = target: HIV-1 Env of isolate MGRM-Chronic-B-018 (subtype B) (HIV-1)
[6] = target: HIV-1 Env of isolate CAAN.A2 (subtype B) (HIV-1)
[7] = target: HIV-1 Env of isolate MG RM-C-023 (subtype C) (HIV-1)
[8] = target: HIV-1 92RW008 Env (HIV-1)
[9] = target: HIV-1 Env of isolate APV_6 (subtype B) (HIV-1)
[10] = target: HIV-1 Env of isolate SC422661.8 (subtype B) (HIV-1)
[11] = target: HIV-1 Env of isolate MGRM-Chronic-B-011 (subtype B) (HIV-1)
[12] = target: HIV-1 Env of isolate MG RM-C-026 (subtype C) (HIV-1)
[13] = target: HIV-1 Env of isolate MGRM-Chronic-B-012 (subtype B) (HIV-1)
[14] = target: HIV-1 Env of isolate 93TH305 (subtype B) (HIV-1)
[15] = target: HIV-1 Env of isolate MGRM-Chronic-B-001 (subtype B) (HIV-1)
[16] = target: HIV-1 Env of isolate MGRM-Chronic-B-023 (subtype B) (HIV-1)
[17] = target: HIV-1 Env of isolate JRFL (subtype B) (HIV-1)
[18] = target: HIV-1 Env of isolate 97ZA012 (subtype C) (HIV-1)
[19] = target: HIV-1 Env of isolate SF162 (subtype B) (HIV-1) (UniProt P19550)
[20] = target: HIV-1 Env of isolate MGRM-Chronic-B-024 (subtype B) (HIV-1)
[21] = target: HIV-1 Env of isolate 6535.3 (subtype B) (HIV-1)
[22] = target: HIV-1 Env of isolate 98IN022 (subtype C) (HIV-1)
[23] = target: HIV-1 Env of isolate MG RM-C-028 (subtype C) (HIV-1)
[24] = target: HIV-1 Env of isolate MGRM-Chronic-B-003 (subtype B) (HIV-1)
[25] = target: HIV-1 Env of isolate PVO.4 (subtype B) (HIV-1)
[26] = target: HIV-1 Env of isolate APV_17 (subtype B) (HIV-1)
[27] = target: HIV-1 Env of isolate 93IN905 (subtype C) (HIV-1)
[28] = target: HIV-1 Env of isolate MGRM-Chronic-B-002 (subtype B) (HIV-1)
[29] = target: HIV-1 Env of isolate TRO.11 (subtype B) (HIV-1)
[30] = target: HIV-1 Env of isolate MGRM-Chronic-B-020 (subtype B) (HIV-1)
[31] = target: HIV-1 Env of isolate MG RM-C-022 (subtype C) (HIV-1)
[32] = target: HIV-1 Env of isolate MG RM-C-025 (subtype C) (HIV-1)
[33] = target: HIV-1 Env of isolate MGRM-Chronic-B-017 (subtype B) (HIV-1)
[34] = target: HIV-1 Env of isolate VLGCB3 (subtype B) (HIV-1)
[35] = target: HIV-1 Env of isolate APV_13 (subtype B) (HIV-1)
[36] = target: HIV-1 Env of isolate MG RM-C-027 (subtype C) (HIV-1)
[37] = target: HIV-1 Env of isolate JRCSF (subtype B) (HIV-1) (UniProt P20871)
[38] = target: HIV-1 Env of isolate MG RM-C-019 (subtype C) (HIV-1)
[39] = target: HIV-1 Env of isolate QH0692.42 (subtype B) (HIV-1)
[40] = target: HIV-1 Env of isolate MG RM-C-024 (subtype C) (HIV-1)
[41] = target: HIV-1 Env of isolate MGRM-Chronic-B-010 (subtype B) (HIV-1)
[42] = target: HIV-1 Env of isolate NL43 (subtype B) (HIV-1)
[43] = target: HIV-1 Env of isolate TRJ04551.58 (subtype B) (HIV-1)
[44] = target: HIV-1 Env of isolate 93MW959 (subtype C) (HIV-1)
[45] = target: HIV-1 Env of isolate MGRM-Chronic-B-008 (subtype B) (HIV-1)

4995_E20 (PGT-142) (antibody), sequence (VH): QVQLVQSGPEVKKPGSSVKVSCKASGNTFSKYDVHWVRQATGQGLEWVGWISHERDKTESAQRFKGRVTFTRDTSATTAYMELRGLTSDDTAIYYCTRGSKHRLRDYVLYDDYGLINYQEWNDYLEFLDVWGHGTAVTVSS
4995_E20 (PGT-142) (antibody), sequence (VL): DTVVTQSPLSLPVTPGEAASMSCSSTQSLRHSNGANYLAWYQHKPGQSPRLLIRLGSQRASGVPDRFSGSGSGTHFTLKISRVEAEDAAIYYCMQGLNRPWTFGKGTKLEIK
4995_P16 (PGT-145) (antibody), sequence (VH): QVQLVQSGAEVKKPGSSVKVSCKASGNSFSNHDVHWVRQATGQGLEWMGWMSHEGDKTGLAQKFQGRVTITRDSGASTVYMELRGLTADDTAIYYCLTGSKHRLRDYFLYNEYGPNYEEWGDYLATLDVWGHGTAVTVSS
4995_P16 (PGT-145) (antibody), sequence (VL): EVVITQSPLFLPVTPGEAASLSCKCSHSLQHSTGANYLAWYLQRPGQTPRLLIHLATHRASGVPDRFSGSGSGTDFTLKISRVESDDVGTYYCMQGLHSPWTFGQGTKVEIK
4993_K13 (PGT-141) (antibody), sequence (VH): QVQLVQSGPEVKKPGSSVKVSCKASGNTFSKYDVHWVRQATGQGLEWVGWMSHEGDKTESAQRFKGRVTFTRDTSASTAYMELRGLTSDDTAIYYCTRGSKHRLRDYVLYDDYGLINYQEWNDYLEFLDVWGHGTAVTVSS

Substance 4993_K13 (PGT-141) (antibody) has an IC50 [1] of 0.586 µg/mL, an IC50 [2] of 20.3 µg/mL and an IC50 [3] of 1.34 µg/mL. The IC50 [4] was 0.007 µg/mL, the IC50 [5] was 0.572 µg/mL and the IC50 [6] was > 50 µg/mL. The IC50 [7] was 0.153 µg/mL, the IC50 [8] was 0.579 µg/mL and the IC50 [9] was 14.2 µg/mL. The IC50 [10] was 1.66 µg/mL, the IC50 [11] was 2.24 µg/mL and the IC50 [12] was > 50 µg/mL. The IC50 [13] was > 50 µg/mL, the IC50 [14] was > 50 µg/mL and the IC50 [15] was > 50 µg/mL. The IC50 [16] was 0.318 µg/mL, the IC50 [17] was > 50 µg/mL and the IC50 [18] was > 50 µg/mL. The IC50 [19] was > 50 µg/mL, the IC50 [20] was 0.011 µg/mL and the IC50 [21] was > 50 µg/mL. For the same substance, the IC50 [22] was 0.001 µg/mL, the IC50 [23] was 13.8 µg/mL and the IC50 [24] was 0.4 µg/mL. The IC50 [25] was 0.113 µg/mL, the IC50 [26] was 0.59 µg/mL and the IC50 [27] was 0.001 µg/mL. The IC50 [28] was > 50 µg/mL, the IC50 [29] was 0.383 µg/mL and the IC50 [30] was > 50 µg/mL. The IC50 [31] was 0.381 µg/mL, the IC50 [32] was 0.247 µg/mL and the IC50 [33] was 0.147 µg/mL. The IC50 [34] was > 50 µg/mL, the IC50 [35] was > 50 µg/mL and the IC50 [36] was 3.27 µg/mL. The IC50 [37] was 0.009 µg/mL, the IC50 [38] was 0.008 µg/mL and the IC50 [39] was > 50 µg/mL. The IC50 [40] was 0.101 µg/mL, the IC50 [41] was > 50 µg/mL and the IC50 [42] was > 50 µg/mL. The IC50 [43] was > 50 µg/mL, the IC50 [44] was 0.003 µg/mL and the IC50 [45] was > 50 µg/mL.

4995_E20 (PGT-142) (antibody) gave an IC50 [1] of 0.172 µg/mL, an IC50 [2] of 15.1 µg/mL and an IC50 [3] of 0.446 µg/mL. For the same substance, the IC50 [4] was 0.012 µg/mL, the IC50 [5] was 0.323 µg/mL and the IC50 [6] was > 50 µg/mL. For the same substance, the IC50 [7] was 0.087 µg/mL, the IC50 [8] was 0.447 µg/mL and the IC50 [9] was 4.72 µg/mL. For the same substance, the IC50 [10] was 3.15 µg/mL, the IC50 [11] was 0.994 µg/mL and the IC50 [12] was > 50 µg/mL. For the same substance, the IC50 [13] was > 50 µg/mL, the IC50 [14] was 5.86 µg/mL and the IC50 [15] was > 50 µg/mL. For the same substance, the IC50 [16] was 0.486 µg/mL, the IC50 [17] was > 50 µg/mL and the IC50 [18] was > 50 µg/mL. For the same substance, the IC50 [19] was > 50 µg/mL, the IC50 [20] was 0.005 µg/mL and the IC50 [21] was > 50 µg/mL. The IC50 [22] was 0.001 µg/mL, the IC50 [23] was 2.12 µg/mL and the IC50 [24] was 0.484 µg/mL. It also gave an IC50 [25] of 0.066 µg/mL, an IC50 [26] of 0.628 µg/mL and an IC50 [27] of 0.001 µg/mL. For the same substance, the IC50 [28] was > 50 µg/mL, the IC50 [29] was 0.27 µg/mL and the IC50 [30] was > 50 µg/mL. For the same substance, the IC50 [31] was 0.086 µg/mL, the IC50 [32] was 0.183 µg/mL and the IC50 [33] was 0.076 µg/mL. For the same substance, the IC50 [34] was > 50 µg/mL, the IC50 [35] was > 50 µg/mL and the IC50 [36] was 0.792 µg/mL. The IC50 [37] was 0.01 µg/mL, the IC50 [38] was 0.003 µg/mL and the IC50 [39] was > 50 µg/mL. For the same substance, the IC50 [40] was 0.03 µg/mL, the IC50 [41] was > 50 µg/mL and the IC50 [42] was > 50 µg/mL. For the same substance, the IC50 [43] was > 50 µg/mL, the IC50 [44] was 0.001 µg/mL and the IC50 [45] was > 50 µg/mL.

In the case of 4995_P16 (PGT-145) (antibody), the IC50 [1] is reported as 0.023 µg/mL, the IC50 [2] is reported as 1.05 µg/mL and the IC50 [3] is reported as 0.712 µg/mL. For the same substance, the IC50 [4] was 0.013 µg/mL, the IC50 [5] was 0.013 µg/mL and the IC50 [6] was 7.08 µg/mL. It also gave an IC50 [7] of 0.201 µg/mL, an IC50 [8] of 0.4 µg/mL and an IC50 [9] of 0.104 µg/mL. The IC50 [10] was 0.079 µg/mL, the IC50 [11] was 0.206 µg/mL and the IC50 [12] was > 50 µg/mL. It also gave an IC50 [13] of 9.06 µg/mL, an IC50 [14] of 0.032 µg/mL and an IC50 [15] of 3.22 µg/mL. It also gave an IC50 [16] of 0.009 µg/mL, an IC50 [17] of 30.4 µg/mL and an IC50 [18] of 0.915 µg/mL. For the same substance, the IC50 [19] was > 50 µg/mL, the IC50 [20] was 0.018 µg/mL and the IC50 [21] was > 50 µg/mL. For the same substance, the IC50 [22] was 0.005 µg/mL, the IC50 [23] was 0.099 µg/mL and the IC50 [24] was 0.045 µg/mL. The IC50 [25] was 0.299 µg/mL, the IC50 [26] was 0.488 µg/mL and the IC50 [27] was 0.002 µg/mL. The IC50 [28] was 3.67 µg/mL, the IC50 [29] was 0.044 µg/mL and the IC50 [30] was > 50 µg/mL. For the same substance, the IC50 [31] was 0.492 µg/mL, the IC50 [32] was 0.044 µg/mL and the IC50 [33] was 0.054 µg/mL. The IC50 [34] was > 50 µg/mL, the IC50 [35] was 0.337 µg/mL and the IC50 [36] was 0.095 µg/mL. The IC50 [37] was 0.002 µg/mL, the IC50 [38] was 0.005 µg/mL and the IC50 [39] was > 50 µg/mL. For the same substance, the IC50 [40] was 0.174 µg/mL, the IC50 [41] was > 50 µg/mL and the IC50 [42] was 0.006 µg/mL. The IC50 [43] was > 50 µg/mL, the IC50 [44] was 1.2 µg/mL and the IC50 [45] was 1.9 µg/mL.
